The values that follow come from patent US7897569B2, “Use of HMGB fragments as anti-inflammatory agents” (The Feinstein Institute for Medical Research, priority 2001, dated 2011).

In data set [1] the test system is Balb/c mice subjected to CLP. Briefly: Cecal ligation and puncture (CLP) sepsis survival. The data set is classed as in vivo. Here is the method: Cecal ligation and puncture (CLP) was performed as described previously (Fink and Heard, J. Surg. Res. 49:186-196, 1990; Wichmann et al., Crit. Care Med. 26:2078-2086, 1998; and Remick et al., Shock 4:89-95, 1995). Briefly, Balb/c mice were anesthetized with 75 mg/kg ketamine (Fort Dodge, Fort Dodge, Iowa) and 20 mg/kg of xylazine (Bohringer Ingelheim, St. Joseph, Mo.) intramuscularly. A midline incision was performed, and the cecum was isolated. A 6-0 prolene suture ligature was placed at a level 5.0 mm from the cecal tip away from the ileocecal valve.
The ligated cecal stump was then punctured once with a 22-gauge needle, without direct extrusion of stool. The cecum was then placed back into its normal intra-abdominal position. The abdomen was then closed with a running suture of 6-0 prolene in two layers, peritoneum and fascia separately to prevent leakage of fluid. All animals were resuscitated with a normal saline solution administered sub-cutaneously at 20 ml/kg of body weight. Each mouse received a subcutaneous injection of imipenem (0.5 mg/mouse) (Primaxin, Merck & Co., Inc., West Point, Pa.) 30 minutes after the surgery. Animals were then allowed to recuperate. Mortality was recorded for up to 1 week after the procedure; survivors were followed for 2 weeks to ensure no late mortalities had occurred.
To determine whether the HMGB1 A box can inhibit the lethality of HMGB1 during sepsis, mice were subjected to cecal perforation and treated by administration of A box beginning 24 hours after the onset of sepsis. CLP was performed on male Balb/c mice as described herein. Animals were randomly grouped, with 15-25 mice per group. The HMGB1 A box (60 or 600 μg/mouse each time) or vector (GST tag, 600 μg/mouse) alone was administered intraperitoneally twice daily for 3 days beginning 24 hours after CLP. Survival was monitored twice daily for up to 2 weeks to ensure no late death occurred. […]
Passive immunization of critically ill septic mice with anti-HMGB1 antibodies was also assessed. […] Survival was monitored for 2 weeks. […]

The subject of data set [2] is RAW 264.7 cells. Briefly: IL-6 release from RAW 264.7 cells (ELISA). Type of data set: cell-based, murine. The following applies: B box 0-10 μg/ml, 8 hours. As for the experimental part: (§1) To further examine the effect of HMGB1 B box on cytokine production, varying amounts of HMGB1 B box were evaluated for the effects on TNF, IL-1 B, and IL-6 production in murine macrophage-like RAW 264.7 cells. Conditioned media were harvested and measured for TNF, IL-1β and IL-6 levels. TNF levels were measured as described herein, and IL-1β and IL-6 levels were measured using the mouse IL-1β and IL-6 enzyme-linked immunosorbent assay (ELISA) kits (R&D System Inc., Minneapolis, Minn.) and N>5 for all experiments.

The test system of another data set is C3H/HeJ mice. Briefly: Lethality and histology in C3H/HeJ mice. Type of data set: in vivo.
Data set [3] relates to RAW 264.7 cells. Nature of the data set: IL-1β release from RAW 264.7 cells (ELISA). The data set is classed as cell-based, murine. The following applies: B box 1 μg/ml or 10 μg/ml, 8 hours. As for the experimental part: as §1
In data set [4] the test system is RAW 264.7 cells. Briefly: TNF mRNA expression in RAW 264.7 cells (RNase protection assay). Type of data set: cell-based, murine. The following applies: 10 μg/ml. As for the experimental part: The kinetics of B box-induced TNF release was also examined. TNF release and TNF mRNA expression was measured in RAW 264.7 cells induced by B box polypeptide or GST tag polypeptide only used as a control (vector) (10 μg/ml) for 0 to 48 hours. Supernatants were analyzed for TNF protein levels by an L929 cytotoxicity assay (N=3-5) as described herein. For mRNA measurement, cells were plated in 100 mm plate and treated in Opti-MEM I medium containing B box polypeptide or the vector alone for 0, 4, 8, or 24 hours, as indicated in FIG. 2D. The vector only sample was assayed at the 4 hour time point. Cells were scraped off the plate and total RNA was isolated by RNAzol B method in accordance with the manufacturer's instructions (Tel-Test “B”, Inc., Friendswood, Tex.). TNF (287 bp) was measured by RNase protection assay (Ambion, Austin, Tex.). Equal loading and the integrity of RNA was verified by ethidium bromide staining of the RNA sample on agarose-formaldehyde gel. […] TNF mRNA expression was maximal at 4 hours and decreased at 8 and 24 hours. […] A similar study was carried out measuring TNF protein released from RAW 264.7 cells 0, 4, 8, 24, 32 or 48 hours after administration of B box or vector only (GST tag), using the L929 cytotoxicity assay described herein. […] Data are representative of three separate experiments.

Data set [5] relates to D-galactosamine-sensitized Balb/c mice. Nature of the data set: Histology and serum cytokines in D-galactosamine-sensitized Balb/c mice. The data set is classed as in vivo. As for the experimental part:
To further assess the lethality of the HMGB1 B box protein in vivo the HMGB1 B box was again administered to D-galactosamine-sensitized Balb/c mice. Mice (3 per group) received D-gal (20 mg/mouse) plus B box or vector (1 mg/mouse) intraperitoneally for 7 hours and were then sacrificed by decapitation. Blood was collected, and organs (liver, heart, kidney and lung) were harvested and fixed in 10% formaldehyde. Tissue sections were prepared with hematoxylin and eosin staining for histological evaluation (Criterion Inc., Vancouver, Canada). The results of these studies are shown in FIGS. 7A-7J, which are scanned images of hematoxylin and eosin stained kidney sections (FIG. 7A), myocardium sections (FIG. 7C), lung sections (FIG. 7E), and liver sections (FIGS. 7G and 7I) obtained from an untreated mouse and kidney sections (FIG. 7B), myocardium sections (FIG. 7D), lung sections (FIG. 7F), and liver sections (FIGS. 7H and 7J) obtained from mice treated with the HMGB1 B box. […] In FIG. 7J, hepatocyte dropouts are seen surrounded by accumulated polymorphonuclear leukocytes. The arrows in FIG. 7J point to the sites of polymorphonuclear accumulation (dotted) or apoptotic hepatocytes (solid).

[6] abbreviates: C3H/HeJ mice, 8 hours after administration.
Setting [7] is: 1 mg/mouse ip plus D-gal, 7 hours.

B1: A box: Human HMGB1 mutant containing only the A box, SEQ ID NO:21 (A box SEQ ID NO:22) (protein)
chain: MGKGDPKKPTGKMSSYAFFVQTCREEHKKKHPDASVNFSEFSKKCSERWKTMSAKEKGKFEDMAKADKARYEREMKTYIPPKGET
Turning to B1, in data set [1] (60 μg A box, CLP), the “clinical condition and outcome” value is reported as “most died”. Besides, the clinical condition entry in data set [1] (600 μg/mouse A box, CLP) was “significantly more alert, active, and to resume feeding behavior”. The molecule further yielded a survival in data set [1] (ip twice daily for 3 days beginning 24 hours after CLP) of 68%.

B2: B box: Human HMGB1 mutant containing only the B box, SEQ ID NO:20 (protein)
chain: FKDPNAPKRLPSAFFLFCSEYRPKIKGEHPGLSIGDVAKKLGEMWNNTAADDKQPYEKKAAKLKEKYEKDIAAY
For B2, the “IL-6 release, dose dependence” value in the data set with RAW 264.7 cells [2] was “increased with increased amounts of B box”. For the same molecule, the lethality entry in the data set on C3H/HeJ mice (C3H/HeJ mice (do not respond to endotoxin)) was “lethal”. Besides, in the data set with C3H/HeJ mice (setting [6]), the histology of heart result is on record as “evidence of ischemia with loss of cross striation”; the histology of liver result is “mild acute inflammatory responses”; the “histology of lung and kidney” value is “no abnormal morphologic changes”. Further, the IL-1β release result in the data set with RAW 264.7 cells [3] is reported as “increased release of IL-1β”. Further, the “time of maximal TNF mRNA expression” value in the data set on RAW 264.7 cells [4] turned out to be 4 h. Besides, the “TNF mRNA expression” value in the data set with RAW 264.7 cells [4] (0-24 hours (vector at 4 hours)) was “increased significantly”. In addition, in data set [5] (setting [7]), the histology of heart entry is “some ischemic changes and loss of cross striation in myocardial fibers”; the “histology of kidneys and lungs” value was “no abnormality”; the histology of liver result is “active hepatitis”. Moreover, in data set [5] (B box in vivo, Balb/c mice), the “serum levels of IL-1β” value is recorded as 15+3 pg/ml and the “serum levels of IL-6” value was 315+93 pg/ml.
